# Assay results: PMC9214875
# Experiments:
# [1] = Blue Native PAGE, MHCC97H and HCCLM3; details: glycan lost; control: wild type
# [2] = nuclear/cytoplasmic fractionation, Western blot, LO2 and MHCC97H; details: glycan lost; control: wild type
# [3] = cycloheximide chase, Western blot, MHCC97H; details: glycan lost; control: wild type (G-MerTK)
# [4] = MG132 rescue of MerTK level, Western blot; details: glycan lost; control: no TM
# [5] = Blue Native PAGE, endogenous MerTK, MHCC97H; details: glycan lost; control: untreated / with glucose
# [6] = MerTK IP, anti-ubiquitin blot, MHCC97H and HCCLM3; details: glycan lost; control: untreated
# [7] = nuclear/cytoplasmic fractionation, Western blot, MHCC97H; details: glycan lost; control: untreated
Protein,oligomerisation [1],localisation_or_trafficking [2],degradation_or_half_life [3],degradation_or_half_life [4],oligomerisation [5],other: ubiquitination [6],localisation_or_trafficking [7]
MerTK: N294Q (protein) parent chain: MGPAPLPLLLGLFLPALWRRAITEAREEAKPYPLFPGPFPGSLQTDHTPLLSLPHASGYQPALMFSPTQPGRPHTGNVAIPQVTSVESKPLPPLAFKHTVGHIILSEHKGVKFNCSISVPNIYQDTTISWWKDGKELLGAHHAITQFYPDDEVTAIIASFSITSVQRSDNGSYICKMKINNEEIVSDPIYIEVQGLPHFTKQPESMNVTRNTAFNLTCQAVGPPEPVNIFWVQNSSRVNEQPEKSPSVLTVPGLTEMAVFSCEAHNDKGLTVSKGVQINIKAIPSPPTEVSIRNSTAHSILISWVPGFDGYSPFRNCSIQVKEADPLSNGSVMIFNTSALPHLYQIKQLQALANYSIGVSCMNEIGWSAVSPWILASTTEGAPSVAPLNVTVFLNESSDNVDIRWMKPPTKQQDGELVGYRISHVWQSAGISKELLEEVGQNGSRARISVQVHNATCTVRIAAVTRGGVGPFSDPVKIFIPAHGWVDYAPSSTPAPGNADPVLIIFGCFCGFILIGLILYISLAIRKRVQETKFGNAFTEEDSELVVNYIAKKSFCRRAIELTLHSLGVSEELQNKLEDVVIDRNLLILGKILGEGEFGSVMEGNLKQEDGTSLKVAVKTMKLDNSSQREIEEFLSEAACMKDFSHPNVIRLLGVCIEMSSQGIPKPMVILPFMKYGDLHTYLLYSRLETGPKHIPLQTLLKFMVDIALGMEYLSNRNFLHRDLAARNCMLRDDMTVCVADFGLSKKIYSGDYYRQGRIAKMPVKWIAIESLADRVYTSKSDVWAFGVTMWEIATRGMTPYPGVQNHEMYDYLLHGHRLKQPEDCLDELYEIMYSCWRTDPLDRPTFSVLRLQLEKLLESLPDVRNQADVIYVNTQLLESSEGLAQGSTLAPLDLNIDPDSIIASCTPRAAISVVTAEVHDSKPHEGRYILNGGSEEWEDLTSAPSAAVTAEKNSVLPGERLVRNGVSWSHSSMLPLGSSLPDELLFADDSSEGSEVLM,decreases,increases,decreases,–,–,–,–
MerTK: TM (protein) parent chain: MGPAPLPLLLGLFLPALWRRAITEAREEAKPYPLFPGPFPGSLQTDHTPLLSLPHASGYQPALMFSPTQPGRPHTGNVAIPQVTSVESKPLPPLAFKHTVGHIILSEHKGVKFNCSISVPNIYQDTTISWWKDGKELLGAHHAITQFYPDDEVTAIIASFSITSVQRSDNGSYICKMKINNEEIVSDPIYIEVQGLPHFTKQPESMNVTRNTAFNLTCQAVGPPEPVNIFWVQNSSRVNEQPEKSPSVLTVPGLTEMAVFSCEAHNDKGLTVSKGVQINIKAIPSPPTEVSIRNSTAHSILISWVPGFDGYSPFRNCSIQVKEADPLSNGSVMIFNTSALPHLYQIKQLQALANYSIGVSCMNEIGWSAVSPWILASTTEGAPSVAPLNVTVFLNESSDNVDIRWMKPPTKQQDGELVGYRISHVWQSAGISKELLEEVGQNGSRARISVQVHNATCTVRIAAVTRGGVGPFSDPVKIFIPAHGWVDYAPSSTPAPGNADPVLIIFGCFCGFILIGLILYISLAIRKRVQETKFGNAFTEEDSELVVNYIAKKSFCRRAIELTLHSLGVSEELQNKLEDVVIDRNLLILGKILGEGEFGSVMEGNLKQEDGTSLKVAVKTMKLDNSSQREIEEFLSEAACMKDFSHPNVIRLLGVCIEMSSQGIPKPMVILPFMKYGDLHTYLLYSRLETGPKHIPLQTLLKFMVDIALGMEYLSNRNFLHRDLAARNCMLRDDMTVCVADFGLSKKIYSGDYYRQGRIAKMPVKWIAIESLADRVYTSKSDVWAFGVTMWEIATRGMTPYPGVQNHEMYDYLLHGHRLKQPEDCLDELYEIMYSCWRTDPLDRPTFSVLRLQLEKLLESLPDVRNQADVIYVNTQLLESSEGLAQGSTLAPLDLNIDPDSIIASCTPRAAISVVTAEVHDSKPHEGRYILNGGSEEWEDLTSAPSAAVTAEKNSVLPGERLVRNGVSWSHSSMLPLGSSLPDELLFADDSSEGSEVLM,–,–,–,decreases,abolishes,increases,increases
MerTK: glucose deprivation (protein) parent chain: MGPAPLPLLLGLFLPALWRRAITEAREEAKPYPLFPGPFPGSLQTDHTPLLSLPHASGYQPALMFSPTQPGRPHTGNVAIPQVTSVESKPLPPLAFKHTVGHIILSEHKGVKFNCSISVPNIYQDTTISWWKDGKELLGAHHAITQFYPDDEVTAIIASFSITSVQRSDNGSYICKMKINNEEIVSDPIYIEVQGLPHFTKQPESMNVTRNTAFNLTCQAVGPPEPVNIFWVQNSSRVNEQPEKSPSVLTVPGLTEMAVFSCEAHNDKGLTVSKGVQINIKAIPSPPTEVSIRNSTAHSILISWVPGFDGYSPFRNCSIQVKEADPLSNGSVMIFNTSALPHLYQIKQLQALANYSIGVSCMNEIGWSAVSPWILASTTEGAPSVAPLNVTVFLNESSDNVDIRWMKPPTKQQDGELVGYRISHVWQSAGISKELLEEVGQNGSRARISVQVHNATCTVRIAAVTRGGVGPFSDPVKIFIPAHGWVDYAPSSTPAPGNADPVLIIFGCFCGFILIGLILYISLAIRKRVQETKFGNAFTEEDSELVVNYIAKKSFCRRAIELTLHSLGVSEELQNKLEDVVIDRNLLILGKILGEGEFGSVMEGNLKQEDGTSLKVAVKTMKLDNSSQREIEEFLSEAACMKDFSHPNVIRLLGVCIEMSSQGIPKPMVILPFMKYGDLHTYLLYSRLETGPKHIPLQTLLKFMVDIALGMEYLSNRNFLHRDLAARNCMLRDDMTVCVADFGLSKKIYSGDYYRQGRIAKMPVKWIAIESLADRVYTSKSDVWAFGVTMWEIATRGMTPYPGVQNHEMYDYLLHGHRLKQPEDCLDELYEIMYSCWRTDPLDRPTFSVLRLQLEKLLESLPDVRNQADVIYVNTQLLESSEGLAQGSTLAPLDLNIDPDSIIASCTPRAAISVVTAEVHDSKPHEGRYILNGGSEEWEDLTSAPSAAVTAEKNSVLPGERLVRNGVSWSHSSMLPLGSSLPDELLFADDSSEGSEVLM,–,–,–,–,abolishes,–,–
MerTK: N454Q (protein) parent chain: MGPAPLPLLLGLFLPALWRRAITEAREEAKPYPLFPGPFPGSLQTDHTPLLSLPHASGYQPALMFSPTQPGRPHTGNVAIPQVTSVESKPLPPLAFKHTVGHIILSEHKGVKFNCSISVPNIYQDTTISWWKDGKELLGAHHAITQFYPDDEVTAIIASFSITSVQRSDNGSYICKMKINNEEIVSDPIYIEVQGLPHFTKQPESMNVTRNTAFNLTCQAVGPPEPVNIFWVQNSSRVNEQPEKSPSVLTVPGLTEMAVFSCEAHNDKGLTVSKGVQINIKAIPSPPTEVSIRNSTAHSILISWVPGFDGYSPFRNCSIQVKEADPLSNGSVMIFNTSALPHLYQIKQLQALANYSIGVSCMNEIGWSAVSPWILASTTEGAPSVAPLNVTVFLNESSDNVDIRWMKPPTKQQDGELVGYRISHVWQSAGISKELLEEVGQNGSRARISVQVHNATCTVRIAAVTRGGVGPFSDPVKIFIPAHGWVDYAPSSTPAPGNADPVLIIFGCFCGFILIGLILYISLAIRKRVQETKFGNAFTEEDSELVVNYIAKKSFCRRAIELTLHSLGVSEELQNKLEDVVIDRNLLILGKILGEGEFGSVMEGNLKQEDGTSLKVAVKTMKLDNSSQREIEEFLSEAACMKDFSHPNVIRLLGVCIEMSSQGIPKPMVILPFMKYGDLHTYLLYSRLETGPKHIPLQTLLKFMVDIALGMEYLSNRNFLHRDLAARNCMLRDDMTVCVADFGLSKKIYSGDYYRQGRIAKMPVKWIAIESLADRVYTSKSDVWAFGVTMWEIATRGMTPYPGVQNHEMYDYLLHGHRLKQPEDCLDELYEIMYSCWRTDPLDRPTFSVLRLQLEKLLESLPDVRNQADVIYVNTQLLESSEGLAQGSTLAPLDLNIDPDSIIASCTPRAAISVVTAEVHDSKPHEGRYILNGGSEEWEDLTSAPSAAVTAEKNSVLPGERLVRNGVSWSHSSMLPLGSSLPDELLFADDSSEGSEVLM,decreases,increases,decreases,–,–,–,–
